Assay: yeast display, Sf9 membrane polyspecificity reagent, FACS + sequencing; frameworks hold sequencing errors
Method in brief: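 A nanobody's polyreactivity label depends on the gate it was sorted from. Yeast display cells were stained with 10% biotinylated, detergent-solubilized Sf9 membrane reagent for 1 hour at 4 °C, enriched on streptavidin microbeads and sorted by FACS. The low and high (top ~1%) gates were set on anti-HA fluorescence for expression and streptavidin fluorescence for reagent binding.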
In the case of “QVQLVESGGGLVQAGGSLRLSCAASGRIFRYYTMGWYRQAHGKEREFVATITSSGGSTNYADSVKGRFTISRDNAKNSVYIQTNSLKPEDTAVYYCAKTSRAPWDGYYWGEGTQVTVSS”, the “polyreactivity (PSR sort gate)” value is reported as “low polyreactivity”.
With “QVQLVESGGGLVQAGGSLRLSCAASGRIFRYYTMGWYRQAPGKERELVAAINSSCGSTYYADSVKGRFTISRDNAKNTVYLQMNSLIAEDTAVYYCNAVGYTGRYQFWRVWDVHGDYWGQGNQVTVSS” the “polyreactivity (PSR sort gate)” value was “high polyreactivity”.
For “QVQLVESGGGLVQAGGSLRLSCAASGRIFRYYTMGWYRQAPGKERELVAAISWTGGRTYYADSVKGRFTISRDNAKNTVYLQMNSLKPEDTAVYYCAATNRYYIFDYWGQGTQVTVSS”, the “polyreactivity (PSR sort gate)” value was “high polyreactivity”.
In the case of “QVQLVESGGGLVQAGGSLRLSCAASGRIFSANAMGWYRQAPGKERELVAISWTGGSTYYADSVKGRFTISRDNAKNTVYLQMNSLKPEDTAVYYCAKERYGKYFGSVDYWGQGTQVTVSS”, the “polyreactivity (PSR sort gate)” value is reported as “low polyreactivity”.
With “QVQLVESGGGLVQAGGSLRLSCAASGRIFSAYAMGWYRPAPGKERELVAAISWSGGSTYYADSVKGRFTISRDNAKNTVYLQMNSLKPEDTAVYYCAADYFYTSWYQHDYWGQGTQVTVSS” the “polyreactivity (PSR sort gate)” value was “low polyreactivity”.
For “QVQLVESGGGLVQAGGSLRLSCAASGRIFSDYAMGWYRQAPGKERELVAVISWDGTNTYYADSVKGRFTISRDNAKNTVYLQMNSLKPEDTAVYYCAATGTSYYSAYDYWGQGTQVTVSS”, the “polyreactivity (PSR sort gate)” value was “low polyreactivity”.
For “QVQLVESGGGLVQAGGSLRLSCAASGRIFSDYVMGWYRQAPGKERELVADITGGGSTYYADSVKGRFTISRDNAKNTVYLQMNSLKPEDTAVYYCAARVYSYWDRSQRYYYCGQGTQVTVSS”, the “polyreactivity (PSR sort gate)” value was “high polyreactivity”.
For “QVQLVESGGGLVQAGGSLRLSCAASGRIFSENAMGWYRQAPGKERELVAAISVSGGSTYYADSVKGRFTISRDNAKNTVYLQMNSLKPEDTAVYYCAAEYLAYYSGYDYWGQGTQVTVSS”, the “polyreactivity (PSR sort gate)” value was “high polyreactivity”.
For “QVQLVESGGGLVQAGGSLRLSCAASGRIFSFNARGWYRPAPGKETELVAGITYGGNTYYADSVKGRFTISRDNAKNTVYLQMNSLKPEDTAVYYCAADGVYDQNLYGFWGQGTQVTVSS”, the “polyreactivity (PSR sort gate)” value was “low polyreactivity”.
With “QVQLVESGGGLVQAGGSLRLSCAASGRIFSFNGMGWYRPAPGKERELVAAITSSGGRTYYADSVKGRFTISRDNAKNTVYLQMNSLIPEDTAVYYCAAELAWDYYWGQGTQVTVSS” the “polyreactivity (PSR sort gate)” value was “low polyreactivity”.
With “QVQLVESGGGLVQAGGSLRLSCAASGRIFSFYAMGWYRQAPGKERELVATISDGGATTYYADSVKGRFTISRDNAKNTVYLQMNSLKPEDTAVYYCNARRESYYQRYRVDYWGQGTQVTVSS” the “polyreactivity (PSR sort gate)” value was “low polyreactivity”.
For “QVQLVESGGGLVQAGGSLRLSCAASGRIFSFYAMGWYRQAPGKERELVATISKRAGSTYYADSVKGRFTISRDNAKNTVYLQMNSLKPEDTAVYYCAARKWYYASSRWRDYWGQGTQVTVSS”, the “polyreactivity (PSR sort gate)” value was “high polyreactivity”.
For “QVQLVESGGGLVQAGGSLRLSCAASGRIFSGYAMGWYRQAPGKERELVAAITSRSGSTYYADSVKGRFTISRDNAKNTVYLQMNSLKPEDTAVYYCAAEYVRFYWYTSDYWGQGTQVTVSS”, the “polyreactivity (PSR sort gate)” value was “low polyreactivity”.
For “QVQLVESGGGLVQAGGSLRLSCAASGRIFSGYAMGWYRQAPGKERELVAAIYGGGSTNYADSVKGRFTISRDNAKNTVYLQMNSLKPEDTAVYYCATQYWHYPYWLYKYDYWGQGTQVTVSS”, the “polyreactivity (PSR sort gate)” value was “low polyreactivity”.
With “QVQLVESGGGLVQAGGSLRLSCAASGRIFSGYTMGWYRQAPGKERELVAAIRVGGGRTYYADSVKGRFTISRDNSKNTVYLQMYSLKPEDTAVYYCAKLYIRHGYDYWGQGTQVTVSS” the “polyreactivity (PSR sort gate)” value was “low polyreactivity”.
In the case of “QVQLVESGGGLVQAGGSLRLSCAASGRIFSGYTMGWYRQAPGKERELVAAITRSGGSTYYADSVKGRFTISRDNAKNTVYLQMNSLKPEDTAVYYCNKVSYRRMDSWGQGTQVTVSS”, the “polyreactivity (PSR sort gate)” value is reported as “high polyreactivity”.

Source: the nanobody polyreactivity screen of Harvey et al. (2022)
